This test has as its target TrkA. Description: in situ PLA, anti-Trk plus anti-total IRS1. The following applies: sites Y608.

IRS1, sequence (P35570 whole entry, looked up, change not shown): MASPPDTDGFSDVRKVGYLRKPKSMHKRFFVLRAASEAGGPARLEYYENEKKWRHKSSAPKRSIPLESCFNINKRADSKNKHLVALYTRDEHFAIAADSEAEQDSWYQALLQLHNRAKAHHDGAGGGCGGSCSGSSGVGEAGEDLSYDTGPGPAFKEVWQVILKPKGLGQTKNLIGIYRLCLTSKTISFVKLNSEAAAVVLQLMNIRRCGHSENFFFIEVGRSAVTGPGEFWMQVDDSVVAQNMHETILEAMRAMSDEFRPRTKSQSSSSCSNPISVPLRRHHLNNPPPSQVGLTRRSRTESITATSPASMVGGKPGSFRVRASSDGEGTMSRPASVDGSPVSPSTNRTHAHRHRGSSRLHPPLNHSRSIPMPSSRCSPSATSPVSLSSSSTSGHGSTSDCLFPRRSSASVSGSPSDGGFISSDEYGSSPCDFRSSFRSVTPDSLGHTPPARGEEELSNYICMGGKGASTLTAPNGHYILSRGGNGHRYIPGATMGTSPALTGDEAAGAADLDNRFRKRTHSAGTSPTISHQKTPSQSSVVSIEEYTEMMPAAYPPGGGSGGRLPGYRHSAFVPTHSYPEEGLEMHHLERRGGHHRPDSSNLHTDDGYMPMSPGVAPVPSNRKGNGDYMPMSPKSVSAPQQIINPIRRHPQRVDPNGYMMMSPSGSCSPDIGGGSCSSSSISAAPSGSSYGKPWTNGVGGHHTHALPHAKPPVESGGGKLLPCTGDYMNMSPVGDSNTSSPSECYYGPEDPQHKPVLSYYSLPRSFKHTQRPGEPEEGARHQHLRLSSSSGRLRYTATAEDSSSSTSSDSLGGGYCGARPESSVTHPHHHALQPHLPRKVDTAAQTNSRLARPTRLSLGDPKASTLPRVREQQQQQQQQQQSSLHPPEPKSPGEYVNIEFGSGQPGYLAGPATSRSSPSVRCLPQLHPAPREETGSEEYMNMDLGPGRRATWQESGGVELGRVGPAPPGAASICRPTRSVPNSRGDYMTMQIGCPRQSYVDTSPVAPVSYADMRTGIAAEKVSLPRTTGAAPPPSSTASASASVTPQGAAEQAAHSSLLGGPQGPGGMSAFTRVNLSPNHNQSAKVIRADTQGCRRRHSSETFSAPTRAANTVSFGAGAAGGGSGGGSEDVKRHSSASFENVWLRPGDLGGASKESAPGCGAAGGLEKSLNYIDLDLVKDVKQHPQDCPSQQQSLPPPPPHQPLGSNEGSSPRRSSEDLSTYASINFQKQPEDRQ

As for “IRS1 (from UniProt P35570) NGF 100 ng/ml, 30 min”, the “other: PLA dots per neuron” value (reference: untreated neurons (CTR)) was “stronger; reference 50.6 ± 5.9”.
Regarding “IRS1 (from UniProt P35570) NGF after NT157 preincubation (10 µM, 2 h)”, the “other: PLA dots per neuron” value (reference: NGF-treated neurons) is “weaker; reference 121.5 ± 16.4”.
